Laboratory results as given in paper PMC3159460.

T1: Sso7c4 (Saccharolobus (Sulfolobus) solfataricus …, UniProt P81552 2-56)
T1 sequence: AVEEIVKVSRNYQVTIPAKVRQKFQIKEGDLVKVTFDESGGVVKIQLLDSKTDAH

B1: 8-mer duplex (SPR, biotinylated) (dsDNA)
DNA 1: CGCTATAGCG
DNA 2: CGCTATAGCG
B2: 16-mer duplex (SPR, biotinylated) (dsDNA)
DNA 1: CGCGTACGCGTACGCG
DNA 2: CGCGTACGCGTACGCG
B3: 16-mer duplex (NMR) (dsDNA)
DNA 1: CGCGTACGCGTACGCGTA
DNA 2: TACGCGTACGCGTACGCG
B4: 12-mer duplex (dsDNA)
DNA 1: CAATCCGGATTG
DNA 2: CAATCCGGATTG

How the values were obtained:
Sso7c4 [1] = biological target: T1, Sso7c4; experiment: SPR
Sso7c4 [2] = biological target: T1, Sso7c4; experiment: NMR 1H-15N HSQC titration
Sso7c4 [3] = biological target: T1, Sso7c4; experiment: NMR 1D 1H titration of DNA

Binder | Kd (Sso7c4 [1]) | also measured
B1 | 10.1 µM | 
B2 | 1.54 µM | 
B3 |  | binding result (Sso7c4 [2]): binds
B4 |  | binding result (Sso7c4 [3]): binds
